The text below walks through data of patent US20250011379A1.

For the assay, the target named is human C4b (human), P0C0L5. Nature of the assay: cell-based or functional assay.
human C4b (human), P0C0L5, sequence (P0C0L5 20-1744): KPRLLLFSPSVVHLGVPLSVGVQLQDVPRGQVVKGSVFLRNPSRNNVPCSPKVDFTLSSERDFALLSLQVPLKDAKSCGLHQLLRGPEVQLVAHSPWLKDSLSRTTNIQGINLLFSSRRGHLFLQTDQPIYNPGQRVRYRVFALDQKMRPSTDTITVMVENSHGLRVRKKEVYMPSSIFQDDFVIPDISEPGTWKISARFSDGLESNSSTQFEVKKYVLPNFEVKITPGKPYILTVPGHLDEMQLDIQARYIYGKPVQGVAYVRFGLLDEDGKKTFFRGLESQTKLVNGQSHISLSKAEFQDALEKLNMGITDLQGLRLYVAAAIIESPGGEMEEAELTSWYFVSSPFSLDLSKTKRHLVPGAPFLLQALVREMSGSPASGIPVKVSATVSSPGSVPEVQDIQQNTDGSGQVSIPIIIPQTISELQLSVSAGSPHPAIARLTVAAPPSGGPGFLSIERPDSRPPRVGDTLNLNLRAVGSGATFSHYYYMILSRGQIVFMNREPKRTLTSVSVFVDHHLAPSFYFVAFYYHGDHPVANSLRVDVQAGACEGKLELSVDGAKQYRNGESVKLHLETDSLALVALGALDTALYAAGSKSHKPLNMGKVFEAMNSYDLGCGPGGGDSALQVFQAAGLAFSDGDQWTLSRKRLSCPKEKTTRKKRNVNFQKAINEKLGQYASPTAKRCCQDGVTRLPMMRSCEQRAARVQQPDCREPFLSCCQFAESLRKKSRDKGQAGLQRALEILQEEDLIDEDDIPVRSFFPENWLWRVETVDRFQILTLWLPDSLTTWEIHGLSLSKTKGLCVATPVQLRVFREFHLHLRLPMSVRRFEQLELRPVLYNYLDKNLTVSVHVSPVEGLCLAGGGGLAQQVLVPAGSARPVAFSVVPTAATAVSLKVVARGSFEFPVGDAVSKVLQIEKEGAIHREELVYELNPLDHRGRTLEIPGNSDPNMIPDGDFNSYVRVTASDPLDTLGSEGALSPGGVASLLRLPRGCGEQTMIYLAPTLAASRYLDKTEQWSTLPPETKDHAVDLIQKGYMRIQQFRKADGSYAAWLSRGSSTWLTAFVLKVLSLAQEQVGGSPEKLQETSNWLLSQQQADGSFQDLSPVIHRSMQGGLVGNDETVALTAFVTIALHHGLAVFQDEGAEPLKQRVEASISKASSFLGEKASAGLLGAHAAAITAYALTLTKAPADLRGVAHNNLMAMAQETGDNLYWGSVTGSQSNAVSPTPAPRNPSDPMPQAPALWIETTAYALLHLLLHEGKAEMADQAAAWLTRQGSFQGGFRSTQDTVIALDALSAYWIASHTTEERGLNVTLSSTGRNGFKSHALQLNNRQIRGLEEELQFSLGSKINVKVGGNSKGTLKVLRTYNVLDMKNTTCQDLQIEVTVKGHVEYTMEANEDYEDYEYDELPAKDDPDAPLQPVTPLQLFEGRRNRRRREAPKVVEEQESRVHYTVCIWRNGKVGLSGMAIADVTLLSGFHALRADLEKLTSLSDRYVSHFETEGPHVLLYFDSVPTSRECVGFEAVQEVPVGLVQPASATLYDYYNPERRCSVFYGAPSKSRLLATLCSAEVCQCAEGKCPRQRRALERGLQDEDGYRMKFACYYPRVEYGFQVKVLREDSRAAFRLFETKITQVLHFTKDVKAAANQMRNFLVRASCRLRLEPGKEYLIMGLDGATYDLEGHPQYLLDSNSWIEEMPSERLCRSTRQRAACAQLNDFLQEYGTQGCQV

B1: Const. No. 94: hCFI-PD (wild type plasma-derived human CFI), P05156 19-583 (enzyme)
chain: KVTYTSQEDLVEKKCLAKKYTHLSCDKVFCQPWQRCIEGTCVCKLPYQCPKNGTAVCATNRRSFPTYCQQKSLECLHPGTKFLNNGTCTAEGKFSVSLKHGNTDSEGIVEVKLVDQDKTMFICKSSWSMREANVACLDLGFQQGADTQRRFKLSDLSINSTECLHVHCRGLETSLAECTFTKRRTMGYQDFADVVCYTQKADSPMDDFFQCVNGKYISQMKACDGINDCGDQSDELCCKACQGKGFHCKSGVCIPSQYQCNGEVDCITGEDEVGCAGFASVTQEETEILTADMDAERRRIKSLLPKLSCGVKNRMHIRRKRIVGGKRAQLGDLPWQVAIKDASGITCGGIYIGGCWILTAAHCLRASKTHRYQIWTTVVDWIHPDLKRIVIEYVDRIIFHENYNAGTYQNDIALIEMKKDGNKKDCELPRSIPACVPWSPYLFQPNDTCIVSGWGREKDNERVFSLQWGEVKLISNCSKFYGNRFYEKEMECAGTYDGSIDACKGDSGGPLVCMDANNVTYVWGVVSWGENCGKPEFPGVYTKVANYFDWISYHVGRPFISQYNV
As for B1, the C4c EC50 was 412 nM.

B2: Const. No. 96: hCFI (wt hCFI, no signal sequence, no HSA), P05156 19-583 (enzyme)
chain: KVTYTSQEDLVEKKCLAKKYTHLSCDKVFCQPWQRCIEGTCVCKLPYQCPKNGTAVCATNRRSFPTYCQQKSLECLHPGTKFLNNGTCTAEGKFSVSLKHGNTDSEGIVEVKLVDQDKTMFICKSSWSMREANVACLDLGFQQGADTQRRFKLSDLSINSTECLHVHCRGLETSLAECTFTKRRTMGYQDFADVVCYTQKADSPMDDFFQCVNGKYISQMKACDGINDCGDQSDELCCKACQGKGFHCKSGVCIPSQYQCNGEVDCITGEDEVGCAGFASVTQEETEILTADMDAERRRIKSLLPKLSCGVKNRMHIRRKRIVGGKRAQLGDLPWQVAIKDASGITCGGIYIGGCWILTAAHCLRASKTHRYQIWTTVVDWIHPDLKRIVIEYVDRIIFHENYNAGTYQNDIALIEMKKDGNKKDCELPRSIPACVPWSPYLFQPNDTCIVSGWGREKDNERVFSLQWGEVKLISNCSKFYGNRFYEKEMECAGTYDGSIDACKGDSGGPLVCMDANNVTYVWGVVSWGENCGKPEFPGVYTKVANYFDWISYHVGRPFISQYNV
In the case of B2, the C4c EC50 was 340 nM.
